Results as given in patent US20220002363A1, “COMPOSITIONS AND METHODS FOR TREATING PULMONARY DISEASE” (United States Government As Represented By The Department …, priority 2020, published 2022).
Read-outs that look alike come from different tables or passages of the source.

How the values were obtained:
[1] = tested on: Jurkat cells; test: Caspase 3/7 activity in Jurkat cells (bioactivity of sFasL proteins); assay type: cell-based, human
Description: Jurkat cells were incubated for 5 hours with wild type (WT) sFasL or a sFasL mutant (mut sFasL) in which 8 charged amino acids were changed to alanine. Caspase 3/7 activity was measured after incubation with the caspase 3/7 substrate at room temperature for 30 minutes. Data is shown as arbitrary luminescence units. […] Each dot represents individual data. Data analyzed by 2-way ANOVA with Sidak post-hoc analysis. ** p<0.01, *** p<0.001 compared to the respective concentration of mut-sFasL.
Methods. Cells and cell culture. To test Fas responses in vitro, the highly-Fas sensitive cell line, Jurak, was used. Jurak cells are human T lymphocyte cells first isolated from the peripheral blood of a child with acute cell leukemia (Gillis S and Watson J. J Exp Med. 1980; 152(6):1709-19). Jurak cells are exquisitely sensitive to Fas ligation and are commonly used as a model cell in studies involving the Fas/FasL system; here they are used as such, rather than as a model of T-cell responses. Jurak cells (human leukemic T lymphocytes) were purchased from ATCC (Clone TIB-152) and grown at 37° C. and 5% CO2 in RPMI-1640 medium supplemented with 10% heat-inactivated fetal bovine serum. Cells were authenticated using short tandem repeat analysis. Mycoplasma status was weakly positive by PCR (Venor GeM Mycoplasma Detection Kit, Sigma-Aldrich, Cat #MP0025). The Jurak data was confirmed in primary human lung epithelial cells and the murine alveolar epithelial cell line LA4, which are described herein.
(§1) Measurements of apoptotic cascade activation. Apoptotic cascade activation was assessed by determining caspase 3/7 activity and Annexin V externalization. Caspase-3/7 activity was measured using a commercial substrate (Caspase-Glo 3/7 Assay, Promega, Madison, Wis., Cat #G8090) following manufacturer's instructions. Annexin V was measured with a luminescent commercial assay that allows for measurement of annexin V externalization in adherent cells (RealTime-Glo Annexin V assay, Promega, Madison, Wis., Cat #JA1011). Luminescence was measured with a Synergy H4 Microplate Reader (BioTek, Winooski, Vt.).
Results. Mutations of the charged amino acids in the stalk region of sFasL influence its biological activity in vitro. To test whether the structure of the stalk region of sFasL influences its biological activity, a mutant sFasL molecule (mut-sFasL) was cloned in which 8 charged amino acids in the 26 amino acid stalk region were changed to the non-charged amino acid alanine (FIG. 7). DNA sequencing data for the FasL constructs was also carried out: DNA sequence of wild type sFasL construct and eight different clones. The mutant sFasL clone used in the study is clone 1. […]

[2] = molecular target: T1, WT-sFasL (Homo sapiens, UniProt P48023); test: Attenuation of WT-sFasL-induced caspase 3/7 activity in primary human small airway epithelial cells (SAEC); assay type: cell-based; conditions: for inhibitory effect on ability of WT-sFasL to induce caspase 3-7 activity: at higher molar ratios than in Jurkat
T1 construct: made in house
T1 sequence (P48023 103-281): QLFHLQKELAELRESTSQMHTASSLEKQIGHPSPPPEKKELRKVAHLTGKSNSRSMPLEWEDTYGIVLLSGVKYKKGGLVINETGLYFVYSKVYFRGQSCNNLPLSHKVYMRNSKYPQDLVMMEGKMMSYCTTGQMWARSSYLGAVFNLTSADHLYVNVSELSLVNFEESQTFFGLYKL
Description: (§2) FIGS. 2A-D show the mut-sFasL has inhibitory properties. Highly Fas-sensitive Jurkat cells (FIG. 2A), primary human lung small airway epithelial cells (SAEC, FIG. 2B) or murine lung epithelial cells (LA4, FIG. 2D) were incubated with serial dilutions of mutated FasL, (mut sFasL). […] As a confirmatory test, the experiment was repeated using SAEC and an annexin-V translocation assay (FIG. 2C). WT=wild type (no mutant). […] Each dot represents individual data; lines represent means±SD. *=P<0.05; **=P<0.01, ***P<0.001 when compared to WT. One way ANOVA with SIdak's post hoc analysis.
Small airway epithelial cells (SAEC) are primary human cells isolated from the 1-mm bronchiole area of normal human lung tissue, and were purchased from Lonza (Walkersville, Md., catalogue number CC-2547, lot number 0000669507). Cells used came from a single donor and confirmed mycoplasma-free by the vendor. Cells were grown at 37° C., 5% CO2 in small airway epithelial basal medium (SAGM, Lonza, Cat #CC-3119 CC-3119) supplemented with SAGM SingleQuots (Lonza, catalogue number CC-4124), and used between passages 2 and 4.
as §1
The mut-sFasL attenuates the activity of WT-sFasL. Then, the caspase 3/7 activity of Jurkat cells incubated with different molar ratios of WT and mut-sFasL was investigated. […] The molar mixtures on primary human small airway epithelial cells (SAEC) were tested. These cells are commercially isolated from the distal airways of human lungs. […]

[3] = molecular target: T1, WT-sFasL; test: Attenuation of WT-sFasL-induced caspase 3/7 activity in murine lung epithelial cells (LA4); assay type: cell-based, mouse
Description: as §2
Mouse lung epithelial LA-4 cells were obtained from ATCC (catalogue number CCL-196, lot number 3404534). This cell line is derived from a A/He mouse lung adenoma (Stoner G, et al. Cancer Res. 1975; 35(8):2177-85). […]
as §1, with “Vt.). […]” for “Vt.).”

B1: mut-sFasL: mutant sFasL molecule in which 8 charged amino acids in the 26 amino acid stalk region were changed to alanine (protein)
chain: QLFALQAALAALAASTSQMATASSLAKQIGHPSPPPEKKELRKVAHLTGKSNSRSMPLEWEDTYGIVLLSGVKYKKGGLVINETGLYFVYSKVYFRGQSCNNLPLSHKVYMRNSKYPQDLVMMEGKMMSYCTTGQMWARSSYLGAVFNLTSADHLYVNVSELSLVNFEESQTFFGLYKL
With B1 the “bioactivity (caspase 3/7) at the highest concentration tested” value ([1]; 810 ng/mL) was “retained some bioactivity”, the “caspase 3/7 activity” value ([1]; 5 hours incubation, compared to WT-sFasL) was “significantly reduced caspase 3/7 activity compared to WT-sFasL” and the “activity relative to the wild-type sFasL” value ([1]; caspase 3/7) was “approximately two orders of magnitude less than the wild-type sFasL”. For the same molecule, the “intrinsic caspase-3/7 activation” value ([1]; highest dose of 2430 ng/mL (corresponds to 1:81 WT:mut molar ratio)) was “leads to intrinsic caspase-3/7 activation”, the “caspase 3/7 activity” value ([2]; WT:mut sFasL molar ratios of 1:27 and 1:81) was “significantly reduced caspase 3/7 activity” and the “inhibitory effect on ability of WT-sFasL to induce caspase 3-7 activity” value [2] was “inhibitory effect”. For the same molecule, the “inhibitory effect on ability of WT-sFasL to induce caspase 3-7 activity” value ([2]; listed as 8-mutant protein) was “an inhibitory effect of the 8-mutant protein was detected”, the “inhibition of WT-sFasL-induced caspase 3-7 activity” value [3] was “inhibited the ability of WT-sFasL to induce caspase 3-7 activity” and the “inhibition of WT-sFasL-induced caspase 3-7 activity” value ([3]; listed as 8-mutant protein) was “an inhibitory effect of the 8-mutant protein was detected”.
